The chains are these.
B1: Splicing factor 45 (Homo sapiens), Q96I25 (parent)
chain: MSLYDDLGVETSDSKTEGWSKNFKLLQSQLQVKKAALTQAKSQRTKQSTVLAPVIDLKRGGSSDDRQIVDTPPHVAAGLKDPVPSGFSAGEVLIPLADEYDPMFPNDYEKVVKRQREERQRQRELERQKEIEEREKRRKDRHEASGFARRPDPDSDEDEDYERERRKRSMGGAAIAPPTSLVEKDKELPRDFPYEEDSRPRSQSSKAAIPPPVYEEQDRPRSPTGPSNSFLANMGGTVAHKIMQKYGFREGQGLGKHEQGLSTALSVEKTSKRGGKIIVGDATEKDASKKSDSNPLTEILKCPTKVVLLRNMVGAGEVDEDLEVETKEECEKYGKVGKCVIFEIPGAPDDEAVRIFLEFERVESAIKAVVDLNGRYFGGRVVKACFYNLDKFRVLDLAEQV

The variants in the experiment “SF3B1, O75533-1” derive from B1. To be noted: with SF3B1, O75533-1.
SF3B1, O75533-1, sequence (O75533 whole entry): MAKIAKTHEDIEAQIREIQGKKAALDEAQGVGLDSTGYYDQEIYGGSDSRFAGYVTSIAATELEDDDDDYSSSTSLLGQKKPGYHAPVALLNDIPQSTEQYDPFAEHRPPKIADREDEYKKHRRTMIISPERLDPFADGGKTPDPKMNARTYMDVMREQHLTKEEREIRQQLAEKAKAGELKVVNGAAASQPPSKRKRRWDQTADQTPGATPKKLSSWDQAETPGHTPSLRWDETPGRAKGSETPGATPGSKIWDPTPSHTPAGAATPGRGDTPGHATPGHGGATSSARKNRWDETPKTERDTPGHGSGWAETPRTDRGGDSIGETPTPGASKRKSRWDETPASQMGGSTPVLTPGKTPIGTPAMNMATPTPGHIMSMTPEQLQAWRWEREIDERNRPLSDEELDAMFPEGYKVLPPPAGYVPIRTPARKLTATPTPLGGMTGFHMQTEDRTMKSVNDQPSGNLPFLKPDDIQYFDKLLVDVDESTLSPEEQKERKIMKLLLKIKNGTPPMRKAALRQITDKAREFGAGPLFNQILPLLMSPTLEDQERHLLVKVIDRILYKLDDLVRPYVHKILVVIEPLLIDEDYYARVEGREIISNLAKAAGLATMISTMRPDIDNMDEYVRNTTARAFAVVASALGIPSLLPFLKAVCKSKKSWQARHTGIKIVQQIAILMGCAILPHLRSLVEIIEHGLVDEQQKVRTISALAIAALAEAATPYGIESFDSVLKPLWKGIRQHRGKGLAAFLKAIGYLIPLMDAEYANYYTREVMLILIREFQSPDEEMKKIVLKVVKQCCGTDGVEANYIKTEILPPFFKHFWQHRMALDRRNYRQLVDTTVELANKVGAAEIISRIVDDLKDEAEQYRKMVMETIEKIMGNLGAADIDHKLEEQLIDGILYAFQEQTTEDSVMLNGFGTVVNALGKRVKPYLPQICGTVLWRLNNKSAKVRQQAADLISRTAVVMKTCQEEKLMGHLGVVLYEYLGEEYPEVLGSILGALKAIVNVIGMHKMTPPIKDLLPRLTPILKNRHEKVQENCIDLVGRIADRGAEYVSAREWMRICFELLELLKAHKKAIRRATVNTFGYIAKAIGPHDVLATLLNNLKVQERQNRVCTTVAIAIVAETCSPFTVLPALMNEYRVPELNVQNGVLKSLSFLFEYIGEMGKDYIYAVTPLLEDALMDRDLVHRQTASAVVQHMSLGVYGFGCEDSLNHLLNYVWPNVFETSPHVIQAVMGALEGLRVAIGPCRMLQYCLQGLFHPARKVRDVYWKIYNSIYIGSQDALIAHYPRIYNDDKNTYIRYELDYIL
The experiment “U2AF2, P26368” covers variants of B1. To be noted: with U2AF2, P26368.
U2AF2, P26368, sequence (P26368 whole entry): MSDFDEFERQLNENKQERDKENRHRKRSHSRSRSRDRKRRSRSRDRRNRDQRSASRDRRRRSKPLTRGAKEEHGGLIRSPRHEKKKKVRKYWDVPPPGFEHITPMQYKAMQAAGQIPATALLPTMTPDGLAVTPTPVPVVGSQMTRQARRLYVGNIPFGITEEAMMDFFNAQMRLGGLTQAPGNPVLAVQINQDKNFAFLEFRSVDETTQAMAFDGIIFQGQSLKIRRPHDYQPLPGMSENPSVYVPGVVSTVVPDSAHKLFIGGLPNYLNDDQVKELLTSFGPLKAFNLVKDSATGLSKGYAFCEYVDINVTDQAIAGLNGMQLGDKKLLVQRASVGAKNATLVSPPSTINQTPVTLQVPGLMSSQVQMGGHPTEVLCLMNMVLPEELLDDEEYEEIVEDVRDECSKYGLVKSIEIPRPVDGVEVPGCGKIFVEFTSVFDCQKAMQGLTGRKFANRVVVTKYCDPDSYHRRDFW

As for MSLYDDLGVETSDSKTEGWSKNFKLLQSQLQVKKAALTQAKSQRTKQSTVLAPVIDLKRGGSSDDRQIVDTPPHVAAGLKDPVPSGFSAGEVLIPLADEYDPMFPNDYEKVVKRQREERQRQRELERQKEIEEREKRRKDRHEASGFARRPDPDSDEDEDYERERRKRSMGGAAIAPPTSLVEKDKELPRDFPYEEDSRPRSQSSKAAIPPPVYEEQDRPRSPTGPSNSFLANMGGTVAHKIMQKYGFREGQGLGKHEQGLSTALSVEKTSKRGGKIIVGDATEKDASKKSDSNPLTEILKCPTKVVLLRNMVGAGEVDEDLEVETKEQCEKYGKVGKCVIFEIPGAPDDEAVRIFLEFERVESAIKAVVDLNGRYFGGRVVKACFYNLDKFRVLDLAEQV [E329Q], the “effect of a mutation on the interaction” value is “decreasing interaction” in the experiment with SF3B1, O75533-1 and “disrupting interaction” with U2AF2, P26368.
The matching figures for MSLYDDLGVETSDSKTEGWSKNFKLLQSQLQVKKAALTQAKSQRTKQSTVLAPVIDLKRGGSSDDRQIVDTPPHVAAGLKDPVPSGFSAGEVLIPLADEYDPMFPNDYEKVVKRQREERQRQRELERQKEIEEREKRRKDRHEASGFARRPDPDSDEDEDYERERRKRSMGGAAIAPPTSLVEKDKELPRDFPYEEDSRPRSQSSKAAIPPPVYEEQDRPRSPTGPSNSFLANMGGTVAHKIMQKYGFREGQGLGKHEQGLSTALSVEKTSKRGGKIIVGDATEKDASKKSDSNPLTEILKCPTKVVLLRNMVGAGEVDEDLEVETKEECEKYGKVGKCVIFEIPGAPDDEAVRIFLEFERVESAIKAVVDLNGAYFGGRVVKACFYNLDKFRVLDLAEQV [R375A]: “disrupting interaction” and “disrupting interaction”.
As to MSLYDDLGVETSDSKTEGWSKNFKLLQSQLQVKKAALTQAKSQRTKQSTVLAPVIDLKRGGSSDDRQIVDTPPHVAAGLKDPVPSGFSAGEVLIPLADEYDPMFPNDYEKVVKRQREERQRQRELERQKEIEEREKRRKDRHEASGFARRPDPDSDEDEDYERERRKRSMGGAAIAPPTSLVEKDKELPRDFPYEEDSRPRSQSSKAAIPPPVYEEQDRPRSPTGPSNSFLANMGGTVAHKIMQKYGFREGQGLGKHEQGLSTALSVEKTSKRGGKIIVGDATEKDASKKSDSNPLTEILKCPTKVVLLRNMVGAGEVAAALEVETKEECEKYGKVGKCVIFEIPGAPDDEAVRIFLEFERVESAIKAVVDLNGRYFGGRVVKACFYNLDKFRVLDLAEQV [D319A;E320A;D321A], the “effect of a mutation on the interaction” value is “disrupting interaction strength” with SF3B1, O75533-1 and “disrupting interaction strength” with U2AF2, P26368.
MSLYDDLGVETSDSKTEGWSKNFKLLQSQLQVKKAALTQAKSQRTKQSTVLAPVIDLKRGGSSDDRQIVDTPPHVAAGLKDPVPSGFSAGEVLIPLADEYDPMFPNDYEKVVKRQREERQRQRELERQKEIEEREKRRKDRHEASGFARRPDPDSDEDEDYERERRKRSMGGAAIAPPTSLVEKDKELPRDFPYEEDSRPRSQSSKAAIPPPVYEEQDRPRSPTGPSNSFLANMGGTVAHKIMQKYGFREGQGLGKHEQGLSTALSVEKTSKRGGKIIVGDATEKDASKKSDSNPLTEILKCPTKVVLLRNMVGAGEVKEDLEVETKEECEKYGKVGKCVIFEIPGAPDDEAVRIFLEFERVESAIKAVVDLNGRYFGGRVVKACFYNLDKFRVLDLAEQV [D319K]: the “effect of a mutation on the interaction” value with SF3B1, O75533-1 is listed as “disrupting interaction”; with U2AF2, P26368, “disrupting interaction”.

The values above are taken from IntAct's records for PubMed 17589525.
